Test results as given in the DeepSol protein solubility set.

Experiment: soluble on expression in E. coli; label from the status in PepcDB or PDB records

Sequence	soluble on expression in E. coli
MKVIINGKEFDIPKGVRFGELSHEIEKAGIEFGCTDGQCGVCVARVIKGMECLNEPSEEEEETLWRVGAVDEDQRLTCQLVIEKEDCDEIVIESED	not soluble
MAFSRTHSLLARAGSTSTYKRVWRYWYPLMTRGLGNDEIVFINWAYEEDPPMDLPLEASDEPNRAHINLYHRTATQVDLGGKQVLEVSCGHGGGASYLTRTLHPASYTGLDLNQAGIKLCKKRHRLPGLDFVRGDAENLPFDDESFDVVLNVEASHCYPHFRRFLAEVVRVLRPGGYFPYADLRPNNEIAAWEADLAATPLRQLSQRQINAEVLRGIGNNSQKSRDLVDRHLPAFLRFAGREFIGVQGTQLSRYLEGGELSYRMYCFTKD	not soluble
MRGFAQVWHGLREKKRAECTPLNAFLTYVTLPWNSILNDLLSERQKRPILTFEFDAPAHNHD	not soluble
MSLATIYDVSVLAGVSLATVSRVMNKNTNVSEKTKKKVQDAMDQLGYRPSSIAQSLASNRSNSIGVLVSQLDGPFYGPMMTEIETALRDANKHVIIAAGHSNETQEKEAVEFLLDRGCDALILDVEALSDEYIINLCQQSTPIVLINRFISEIEERCIYLNNALGGYLATKHVLSQGHTQLAYIAGPQFKSDARERLEGHKQALAEFEVTFDETLFFEGNFREPSGVSAMEYLLKQDKQFTCVISANDQMASGAIAVSLERDISVPKQLSFIGYDNSPFPKYISPKLSTVSNPIQEMGKMAALWVLKNVYNKPDLSIVNTFTPQLILRDSVKEGHHHHHH	soluble
GAMQGEVSKAASADSTTEGTPADGFTVLSTKSLFLGQKLQVVQADIASIDSDAVVHPTNTDFYIGGEVGNTLEKKGGKEFVEAVLELRKKNGPLEVAGAAVSAGHGLPAKFVIHCNSPVWGADKCEELLEKTVKNCLALADDKKLKSIAFPSIGSGRNGFPKQTAAQLILKAISSYFVSTMSSSIKTVYFVLFDSESIGIYVQEMAKLDAN	soluble
MAHHHHHHMTSQTTTAVFSSDLQTFIVTKYDPLLSIVKELNDKLQNSEKDKYHLEKRIIKLEKQMVLLLEKLEVSDILFDNEEKEKKEEPRKNQKIESEENLLAPWLFSCQLGTPLSSLQVLLEFNVNNTIELNVKLWKREEDMWINVLEDISSNYNNYLPDSLSLLDLRKAARKCLLNICMNEILIVLRNVPGKSQALYNTTTMTLVAILASAIYEAWKRIELTDPVSLGRIVLVLDGMNCINKKREDVGSRLRAGNKKLKIEPLN	not soluble
MTMKGGVASQDFSAAIATACEPAANVWSKVCVALKRELGDAAFGSWIAPAMLREAATGDVVLVTSTGIARDWIRRSAWRRIGELWAAHDATGRRIDLKSRLEFEAAAGAYVEATPKAVAAEPIEIVLPVSTDAPTVVAPSAKSPRTQGLQERFTFETFVPGPANEFAHAVARRIANWADGHFNPVLFHGPYGFGKTHLLNALAWEAMRNAPEKRVVYLTAERFLSTFVRAVMDRQTAAFKEELRAADLLIIDDVHFIAGKQSTQEELFHTLTALVGEGGRVVFSADRPPSAMTEMDAHLRSHLSAGLVCGLEPADRNLRLGILERKIQTLGAAHGFEPSIRPEVMQFLADRFTDSVRELEGALNTLSARAGEGLSRMTLDEVQAILRPHLRSGEKRITIDDIQKATAEHYGMKQADLLSERRNRAVARPRQAAMWLAKQLTTRSLPDIGRRFGGRDHTTVLHAVRRIEALRAEDSALSHDLETLTRKLRGLEHHHHHH	not soluble
MKAPELLLPAGGLERMRAAYDYGADAVYAGSPRYSLRARNNEFAKLDVLEQGIKEAHERNKKFFLTVNTLPHNSKLKTFVADMEPLIAMKPDALIMADPGLIMTVREKWPEMPIHLSVQANTTNYWGVKFWQNIGVERIILSRELSMEEIAEIRQECPDIELEVFIHGALCIAYSGRCLLSGYFNHRDPNQGTCTNSCRWDYKVHNATESDAGDAQLLQGFNFEKAQEEANQNFEGINGQKRHPYADKVFLIEESNRPGEMMPIMEDEHGTYIMNSKDLRGIEVVEKLAKIGVDSLKVEGRTKSLYYVARVAQSYRKAIDDAVAGRPFDYSLLSELEGLANRGYTSGFLERHQTQDYQNYLTGHSTAKQSQYVGHVTEIDENGWATVEVKNRFAVSDSLEIIHPSGNQTIKLEQMTRKGQPVDVAPGNGIQVKIPNMQGKEKALIARVLNP	not soluble
MAHHHHHHMNNLTLGDSNICGTFNKLPFIESYYNRKGILLKSYSWLVKNAIGIIVLVHGLSAHLRLQYLKLNVNVVNNDYATLIDADNYYIYEDSWIEEFNKNGYSVYGIDLQGHGESDGLDKLPLHINNFDDYVYDIIDYMRRINNSIVLEKSMQKSTSNKYTIENREELLPMYLVGLSMGGNIVLRTLEILGKSNEINSNLNIKGCISLAGMISVRMVGSIDSIKYKYFYLPVMKIFSRYFPTFRPGKKKFKFEKYPFVNDLLFYDKYRFKGRITNNLAREILVALDNLHNNIDDIPKNIPILFIHSINDCLCWYEGTVSFYNKLQIDNKELYTLEDMDHVISMEPGNENVLKKILEWISNLYVQ	not soluble
MGSDKIHHHHHHMSVLKATNSIEQRLQIQRLQAPTRVVTSTAGGDVVRGLTQTPKTLPPCYFYDDRGSELFERICELPEYYVTRTETAILQRFAGEIARITGACELVELGSGNSTKTRILLDAYQQLDYPLRYLPIDVCAGILESSAKQLLQDYPSLEVYALAGTYELALAQLTPKKLSSRMICFIGSTLGNLNLQECDVFLSQIRATLNVGEYFLLGVDLQKPKEILEPAYDDSQGVTAEFNLNMLEHLNRSFEGNFDTTQFKHWAFYNESEQRIEMHLKSERSQTVQLKSLNLTVNLAQGETILTEISRKFNLESIQQQLAAKGLIPVQTWTDVNQWFGLLLCQVQG	not soluble
MAHHHHHHMSRNVAAEEEWEDVDAPNEEDEEEEDTTINNSDVMMRYKKAALWCNETLQLLLDATKPGAKVHELCKLGDETVAKKLKTMFKGTEKGLAFPTCISVNSCVAHNSPSADDEVASQEIQLGDVVHIDLGIHVDGYCAQVAHTVQVTENNELAADDDASKVISATYGILNTAMRKMRPGVSVYEVTEVIEKAAAHYGVTPVDGVLSHMLKRYIVDSFRCVPQRKVAEHLVHDYTLEAGQVWTLDIVMSSGKGKLKERDVRPTVYKVALDSNYTMKMESARELQREIEAKYQTFPFALRNLETKRARLGLSEMLKHGAVVPYPVLYERDGEVVGHFKITLLITAKKIEPVTGLKPQKAPTLPAYTDELLLEASKLPLTLEKKRKN	not soluble
MGSDKIHHHHHHMNAVLPRLAMRDIVKSFGSVRVLDGVSLDVMPGEIVALLGSNGAGKSTLMKILTANYTKNAGDIRVNDTLVDFASPRDAARVGITFLPQEISVFPELSVAENICMSADSKGTVDWSGMARRSAAVLDDLGFGHLSPDMLVADLPVAERRIIEIARALEGQADILVMDEPTASLSEQESEQIFTILRRLKDRGTSIVYISHYLKEVFEISDRIVVLRDGLNAGEFDPTTADVTKVVGAMLGKAAGSMFDDRDPLPASAPVVFTCAGLTLPGVIEDVSFDLRAGEILGIFGLIGSGVEVLGRAIFGTQGRPPAGAMTLNGTPYTPVSPRKGKEAGIGFVTAERKTDGIMADMSVRENIVAAFQSDLGHGPFTSPAREAAHTLDWIEKLGIKTSGPEQAIRLLSGGNQQKVCVARWLNPKVKMLILEEPTRGVDVGARREIYSHLVDFARSGLAVLVLSSDVEEVAGLSDRSLVIDRGRILAEFGRGATPGDLMAASAQSEHHD	not soluble
MIKTVVGSYPVVKGKPDSIPDKIKKFFGKYDKYEYSIKKALDDQLNVGIDILSDGQVRGDMVEIFVSNMYGFEGRRVVNRVEFVKPITLNDIKYSLKYISKKDPEKGVKGIITGACTLASSIRVENYYSDNKDENLIYDLAGALNKEALSIQNHVKMIQFDEPILSTGLYDLEVAKKAMDIITSGINVPVAMHVCGDVSKIFYKLNEFNVDILDHEFASCRKNLEILNEITKKVGFGCINTKLKSVDSVDEVKALISEGIEILKNNSKFEGSINDSVIIDPDCGMRLLPVDVAYSKLNNMVTAANEIEKDLILEHHHHHH	not soluble
MSSARRCLFGRPTPEQRSRTRIWLEDAVKRMRQEESQKWGFDFELETPLPSSAGFVYEVIPENCVPEFYRTKVLTVRTTCSSLDISSTTLTPLSSPSTSDKEEPSLMDPNSSFEDEEEPKKWQFREPPTPRKTPTKRQQKMTDFMAVSRKKNSLSPNKLSPVNVIFTPKSRRPTIRTRSSCSPY	not soluble
MSLDRSNTVELHAAGAQSAQGARPDQEDEYIILTPGGSPNEIGDSIAFFAVFDGHGTGIVSNHAKEHIPLLLFESDEFRSGNYERAMQAAIDKEDELLLQGFREGQNFFATSGSTASLALVDMKNGVLVVGNIGDSHILMAERDPENGQVKSIERLTTSHKPESADEKARIEKAGGHVHSHHDISRIGSLNMSRALGDLQYKTPLISAAAAPKTEGQKFACAPDPQNVSSQDGAQAGTGRDDFITVEMSFRRIDLHKEKQYLLALTTDGVTNALDDGKIMNGIAEMFNTGSKADEVARKVVDQAASTEYADNATCVTVFLNGTEARLAEGHHHHHH	soluble
GSMDPSGVKVLETAEDIQERRQQVLDRYHRFKELSTLRRQKLEDSYRFQFFQRDAEELEKWIQEKLQIASDENYKDPTNLQGKLQKHQAFEAEVQANSGAIVKLDETGNLMISEGHFASETIRTRLMELHRQWELLLEKMREKGIKLLQ	soluble
MGSDKIHHHHHHMKIAQVCPRFYPHIGGVETHVYEIASRIAKKFDVEVLTTDPGGKLPKVEEIDGLTVRRFKSLAPSEAYYFSPELYDYLKKNSSDYDVVHAHNYHAFPALFAALTKGKNKLIFTPHYHGSGHSFFRNVLHKPYKIFGRKIFKRADAIVCVSNYEKNLVLKNFKVAEDRTYVIPNGINLDEFKDIEKIKRNKESWKKTILYVGRVEKYKGLDYVVKSLKHLPDNFTLEVVGKGSYKSKIVEMAKKLDVIDRIRFYQDLSRKELIDRYAKADVLVLLSKHEAYGIVVAEALAAKTPCIVANTSALSEWIDNKNVFGIDYPINVSELARLIERVSNVKAGDMKLLDWDDVNERLIRIYSAKI	not soluble
MIDSANRADVFLRKPAPVAPELQHEVEQFYYWEAKLLNDRRFEEWFALLAEDIHYFMPIRTTRIMRDSRLEYSGSREYAHFDDDATMMKGRLRKITSDVSWSENPASRTRHLVSNVMIVGAEAEGEYEISSAFIVYRNRLERQLDIFAGERRDTLRRNTSEAGFEIVNRTILIDQSTILANNLSFFF	soluble
MTDNSQFHAASALVQAAHTVSVVGHLRPDADAIGSVAATVAALQQLGKDAVGAIGQLDSMPENLYTIPGASNIKFGDSLPESDLIIVVDCGSIERTGAFESIIVNNPDKVLVVDHHATNPGFGAVNLIDVEAESTTTILYDWFDAMSVQITPDIAHGLYAGLLTDTGCFRWGRPVMHDMAKELMEFGLDIRAISSALLDQTSVDDLRLVGQIVSRIELREAGPYTLAVLVADFDTINGRSRAVVEGLIEMVRAVEGADFGAVFKEYERGVYTVSLRSSNLSVASLAVHLGGGGHIPAAGYTARGTEIEALDTLIEATVTLGESLRSSAHVDVLEHHHHHH	soluble
MKISMEGSSVINLEQLSLYQDSLGYLGQQMNFPEKMTFHPKIFEETISKSHPGYEDLLAYREVMMNYTLSEIKAIYTDTFDFSKKHPLYMTFNKFDTQKERGQMLAKLKVLYEMFGLKMVDNELSDFLPLMLQFLQVADFKNDSRAQENLQLVIMIIEDGTYEMANTLAENNNPYAYVVSALRKTLKACIVPLKEVENHA	not soluble
